The supplement of paper PMC5998384

Legend:
[1] = tested on: HeLa Kyoto; test: melting temperature (median over replicates), in situ; higher = more thermally stable
[2] = tested on: HeLa Kyoto; test: solubility change mitosis vs G1/S (difference of NP-40 vs SDS log2 ratios) (log2 ratio difference); higher = more soluble in mitosis
[3] = tested on: HeLa Kyoto; test: thermal stability score vs G1/S (z-score of summed log2 fold changes over temperatures); higher = more thermally stable than in G1/S
[4] = tested on: HeLa Kyoto; test: solubility in G1/S (NP-40 vs SDS abundance) (log2 ratio); higher = more soluble; settings: cell cycle stage: G1/S
[5] = cell cycle stage: early G1 (4.5 h after nocodazole release)
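For melting temperature (median over replicates), in situ in this document: HeLa Kyoto cells synchronized by double thymidine or nocodazole block, proteins quantified by TMT10plex mass spectrometry, three independent biological replicates.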
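For solubility change mitosis vs G1/S (difference of NP-40 vs SDS log2 ratios) in this document: synchronized HeLa Kyoto cells (double thymidine block for G1/S, nocodazole release for mitosis), protein amounts in NP-40 versus SDS lysates quantified by mass spectrometry, three biological replicates.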
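For solubility in G1/S (NP-40 vs SDS abundance) in this document: HeLa Kyoto cells arrested at G1/S by double thymidine block, proteins quantified by TMT10plex mass spectrometry in mild NP-40 versus SDS extracts, three biological replicates.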
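For thermal stability score vs G1/S (z-score of summed log2 fold changes over temperatures) in this document: synchronized HeLa Kyoto cells, proteins quantified by TMT10plex mass spectrometry, three biological replicates, mitosis taken 0.5 h after nocodazole release, G1/S directly after double thymidine block.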

Sequence	melting temperature ([1]; cell cycle stage: G1/S)	melting temperature ([1]; cell cycle stage: mitosis)	solubility change mitosis (log2) [2]	thermal stability score [3, 5]	thermal stability score ([3]; cell cycle stage: mitosis)	solubility in G1/S (log2) [4]
MQAHELFRYFRMPELVDFRQYVRTLPTNTLMGFGAFAALTTFWYATRPKPLKPPCDLSMQSVEVAGSGGARRSALLDSDEPLVYFYDDVTTLYEGFQRGIQVSNNGPCLGSRKPDQPYEWLSYKQVAELSECIGSALIQKGFKTAPDQFIGIFAQNRPEWVIIEQGCFAYSMVIVPLYDTLGNEAITYIVNKAELSLVFVDKPEKAKLLLEGVENKLIPGLKIIVVMDAYGSELVERGQRCGVEVTSMKAMEDLGRANRRKPKPPAPEDLAVICFTSGTTGNPKGAMVTHRNIVSDCSAFVKATENTVNPCPDDTLISFLPLAHMFERVVECVMLCHGAKIGFFQGDIRLLMDDLKVLQPTVFPVVPRLLNRMFDRIFGQANTTLKRWLLDFASKRKEAELRSGIIRNNSLWDRLIFHKVQSSLGGRVRLMVTGAAPVSATVLTFLRAALGCQFYEGYGQTECTAGCCLTMPGDWTAGHVGAPMPCNLIKLVDVEEMNYMAAEGEGEVCVKGPNVFQGYLKDPAKTAEALDKDGWLHTGDIGKWLPNGTLKIIDRKKHIFKLAQGEYIAPEKIENIYMRSEPVAQVFVHGESLQAFLIAIVVPDVETLCSWAQKRGFEGSFEELCRNKDVKKAILEDMVRLGKDSGLKPFEQVKGITLHPELFSIDNGLLTPTMKAKRPELRNYFRSQIDDLYSTIKV [ACSL1]	51.6 °C	52.1 °C	-0.213	-0.625	-1.37	0.0525
MQALRHVVCALSGGVDSAVAALLLRRRGYQVTGVFMKNWDSLDEHGVCTADKDCEDAYRVCQILDIPFHQVSYVKEYWNDVFSDFLNEYEKGRTPNPDIVCNKHIKFSCFFHYAVDNLGADAIATGHYARTSLEDEEVFEQKHVKKPEGLFRNRFEVRNAVKLLQAADSFKDQTFFLSQVSQDALRRTIFPLGGLTKEFVKKIAAENRLHHVLQKKESMGMCFIGKRNFEHFLLQYLQPRPGHFISIEDNKVLGTHKGWFLYTLGQRANIGGLREPWYVVEKDSVKGDVFVAPRTDHPALYRDLLRTSRVHWIAEEPPAALVRDKMMECHFRFRHQMALVPCVLTLNQDGTVWVTAVQAVRALATGQFAVFYKGDECLGSGKILRLGPSAYTLQKGQRRAGMATESPSDSPEDGPGLSPLL [TRMU]	50.7 °C	51.1 °C	-0.134	0.5	0.388	-0.242
MQPQSVLHSGYFHPLLRAWQTATTTLNASNLIYPIFVTDVPDDIQPITSLPGVARYGVKRLEEMLRPLVEEGLRCVLIFGVPSRVPKDERGSAADSEESPAIEAIHLLRKTFPNLLVACDVCLCPYTSHGHCGLLSENGAFRAEESRQRLAEVALAYAKAGCQVVAPSDMMDGRVEAIKEALMAHGLGNRVSVMSYSAKFASCFYGPFRDAAKSSPAFGDRRCYQLPPGARGLALRAVDRDVREGADMLMVKPGMPYLDIVREVKDKHPDLPLAVYHVSGEFAMLWHGAQAGAFDLKAAVLEAMTAFRRAGADIIITYYTPQLLQWLKEE [ALAD]	57 °C	55.2 °C	-0.212	-2.61	-2.88	0.106
MQRLQVVLGHLRGPADSGWMPQAAPCLSGAPQASAADVVVVHGRRTAICRAGRGGFKDTTPDELLSAVMTAVLKDVNLRPEQLGDICVGNVLQPGAGAIMARIAQFLSDIPETVPLSTVNRQCSSGLQAVASIAGGIRNGSYDIGMACGVESMSLADRGNPGNITSRLMEKEKARDCLIPMGITSENVAERFGISREKQDTFALASQQKAARAQSKGCFQAEIVPVTTTVHDDKGTKRSITVTQDEGIRPSTTMEGLAKLKPAFKKDGSTTAGNSSQVSDGAAAILLARRSKAEELGLPILGVLRSYAVVGVPPDIMGIGPAYAIPVALQKAGLTVSDVDIFEINEAFASQAAYCVEKLRLPPEKVNPLGGAVALGHPLGCTGARQVITLLNELKRRGKRAYGVVSMCIGTGMGAAAVFEYPGN [ACAA1]	55.1 °C	55.3 °C	-0.102	0.354	-0.509	0.126
MQRRGALFGMPGGSGGRKMAAGDIGELLVPHMPTIRVPRSGDRVYKNECAFSYDSPNSEGGLYVCMNTFLAFGREHVERHFRKTGQSVYMHLKRHVREKVRGASGGALPKRRNSKIFLDLDTDDDLNSDDYEYEDEAKLVIFPDHYEIALPNIEELPALVTIACDAVLSSKSPYRKQDPDTWENELPVSKYANNLTQLDNGVRIPPSGWKCARCDLRENLWLNLTDGSVLCGKWFFDSSGGNGHALEHYRDMGYPLAVKLGTITPDGADVYSFQEEEPVLDPHLAKHLAHFGIDMLHMHGTENGLQDNDIKLRVSEWEVIQESGTKLKPMYGPGYTGLKNLGNSCYLSSVMQAIFSIPEFQRAYVGNLPRIFDYSPLDPTQDFNTQMTKLGHGLLSGQYSKPPVKSELIEQVMKEEHKPQQNGISPRMFKAFVSKSHPEFSSNRQQDAQEFFLHLVNLVERNRIGSENPSDVFRFLVEERIQCCQTRKVRYTERVDYLMQLPVAMEAATNKDELIAYELTRREAEANRRPLPELVRAKIPFSACLQAFSEPENVDDFWSSALQAKSAGVKTSRFASFPEYLVVQIKKFTFGLDWVPKKFDVSIDMPDLLDINHLRARGLQPGEEELPDISPPIVIPDDSKDRLMNQLIDPSDIDESSVMQLAEMGFPLEACRKAVYFTGNMGAEVAFNWIIVHMEEPDFAEPLTMPGYGGAASAGASVFGASGLDNQPPEEIVAIITSMGFQRNQAIQALRATNNNLERALDWIFSHPEFEEDSDFVIEMENNANANIISEAKPEGPRVKDGSGTYELFAFISHMGTSTMSGHYICHIKKEGRWVIYNDHKVCASERPPKDLGYMYFYRRIPS [USP13]	50 °C	50.2 °C	-0.0974	0.321	0.746	0.0742
MQSWSRVYCSLAKRGHFNRISHGLQGLSAVPLRTYADQPIDADVTVIGSGPGGYVAAIKAAQLGFKTVCIEKNETLGGTCLNVGCIPSKALLNNSHYYHMAHGKDFASRGIEMSEVRLNLDKMMEQKSTAVKALTGGIAHLFKQNKVVHVNGYGKITGKNQVTATKADGGTQVIDTKNILIATGSEVTPFPGITIDEDTIVSSTGALSLKKVPEKMVVIGAGVIGVELGSVWQRLGADVTAVEFLGHVGGVGIDMEISKNFQRILQKQGFKFKLNTKVTGATKKSDGKIDVSIEAASGGKAEVITCDVLLVCIGRRPFTKNLGLEELGIELDPRGRIPVNTRFQTKIPNIYAIGDVVAGPMLAHKAEDEGIICVEGMAGGAVHIDYNCVPSVIYTHPEVAWVGKSEEQLKEEGIEYKVGKFPFAANSRAKTNADTDGMVKILGQKSTDRVLGAHILGPGAGEMVNEAALALEYGASCEDIARVCHAHPTLSEAFREANLAASFGKSINF [DLD]	58.6 °C	56.8 °C	-0.0404	-0.545	-2.94	-0.00434
MQTPEVPAERSPRRRSISGTSTSEKPNSMDTANTSPFKVPGFFSKRLKGSIKRTKSQSKLDRNTSFRLPSLRSTDDRSRGLPKLKESRSHESLLSPCSTVECLDLGRGEPVSVKPLHSSILGQDFCFEVTYLSGSKCFSCNSASERDKWMENLRRTVQPNKDNCRRAENVLRLWIIEAKDLAPKKKYFCELCLDDTLFARTTSKTKADNIFWGEHFEFFSLPPLHSITVHIYKDVEKKKKKDKNNYVGLVNIPTASVTGRQFVEKWYPVSTPTPNKGKTGGPSIRIKSRFQTITILPMEQYKEFAEFVTSNYTMLCSVLEPVISVRNKEELACALVHILQSTGRAKDFLTDLVMSEVDRCGEHDVLIFRENTIATKSIEEYLKLVGQQYLHDALGEFIKALYESDENCEVDPSKCSSSELIDHQSNLKMCCELAFCKIINSYCVFPRELKEVFASWKQQCLNRGKQDISERLISASLFLRFLCPAIMSPSLFNLMQEYPDDRTSRTLTLIAKVIQNLANFAKFGNKEEYMAFMNDFLEHEWGGMKRFLLEISNPDTISNTPGFDGYIDLGRELSVLHSLLWEVVSQLDKGENSFLQATVAKLGPLPRVLADITKSLTNPTPIQQQLRRFTEHNSSPNVSGSLSSGLQKIFEDPTDSDLHKLKSPSQDNTDSYFRGKTLLLVQQASSQSMTYSEKDERESSLPNGRSVSLMDLQDTHAAQVEHASVMLDVPIRLTGSQLSITQVASIKQLRETQSTPQSAPQVRRPLHPALNQPGGLQPLSFQNPVYHLNNPIPAMPKASIDSSLENLSTASSRSQSNSEDFKLSGPSNSSMEDFTKRSTQSEDFSRRHTVPDRHIPLALPRQNSTGQAQIRKVDQGGLGARAKAPPSLPHSASLRSTGSMSVVSAALVAEPVQNGSRSRQQSSSSRESPVPKVRAIQRQQTQQVQSPVDSATMSPVERTAAWVLNNGQYEEDVEETEQNLDEAKHAEKYEQEITKLKERLRVSSRRLEEYERRLLVQEQQMQKLLLEYKARLEDSEERLRRQQEEKDSQMKSIISRLMAVEEELKKDHAEMQAVIDAKQKIIDAQEKRIVSLDSANTRLMSALTQVKERYSMQVRNGISPTNPTKLSITENGEFKNSSC [RASAL2]	49 °C	49.4 °C	-0.0989	1.04	2.25	0.0337
MQVTLKTLQQQTFKIDIDPEETVKALKEKIESEKGKDAFPVAGQKLIYAGKILNDDTALKEYKIDEKNFVVVMVTKPKAVSTPAPATTQQSAPASTTAVTSSTTTTVAQAPTPVPALAPTSTPASITPASATASSEPAPASAAKQEKPAEKPAETPVATSPTATDSTSGDSSRSNLFEDATSALVTGQSYENMVTEIMSMGYEREQVIAALRASFNNPDRAVEYLLMGIPGDRESQAVVDPPQAASTGAPQSSAVAAAAATTTATTTTTSSGGHPLEFLRNQPQFQQMRQIIQQNPSLLPALLQQIGRENPQLLQQISQHQEHFIQMLNEPVQEAGGQGGGGGGGSGGIAEAGSGHMNYIQVTPQEKEAIERLKALGFPEGLVIQAYFACEKNENLAANFLLQQNFDED [RAD23B]	57 °C	54.1 °C	0.104	-2.19	-2.38	0.0413
MQWLRVRESPGEATGHRVTMGTAALGPVWAALLLFLLMCEIPMVELTFDRAVASGCQRCCDSEDPLDPAHVSSASSSGRPHALPEIRPYINITILKGDKGDPGPMGLPGYMGREGPQGEPGPQGSKGDKGEMGSPGAPCQKRFFAFSVGRKTALHSGEDFQTLLFERVFVNLDGCFDMATGQFAAPLRGIYFFSLNVHSWNYKETYVHIMHNQKEAVILYAQPSERSIMQSQSVMLDLAYGDRVWVRLFKRQRENAIYSNDFDTYITFSGHLIKAEDD [C1QTNF6]	–	55 °C	-0.235	0.27	-0.884	0.0492
MRAVLDTADIAIVALYFILVMCIGFFAMWKSNRSTVSGYFLAGRSMTWVAIGASLFVSNIGSEHFIGLAGSGAASGFAVGAWEFNALLLLQLLGWVFIPIYIRSGVYTMPEYLSKRFGGHRIQVYFAALSLILYIFTKLSVDLYSGALFIQESLGWNLYVSVILLIGMTALLTVTGGLVAVIYTDTLQALLMIIGALTLMIISIMEIGGFEEVKRRYMLASPDVTSILLTYNLSNTNSCNVSPKKEALKMLRNPTDEDVPWPGFILGQTPASVWYWCADQVIVQRVLAAKNIAHAKGSTLMAGFLKLLPMFIIVVPGMISRILFTDDIACINPEHCMLVCGSRAGCSNIAYPRLVMKLVPVGLRGLMMAVMIAALMSDLDSIFNSASTIFTLDVYKLIRKSASSRELMIVGRIFVAFMVVISIAWVPIIVEMQGGQMYLYIQEVADYLTPPVAALFLLAIFWKRCNEQGAFYGGMAGFVLGAVRLILAFAYRAPECDQPDNRPGFIKDIHYMYVATGLFWVTGLITVIVSLLTPPPTKEQIRTTTFWSKKNLVVKENCSPKEEPYKMQEKSILRCSENNETINHIIPNGKSEDSIKGLQPEDVNLLVTCREEGNPVASLGHSEAETPVDAYSNGQAALMGEKERKKETDDGGRYWKFIDWFCGFKSKSLSKRSLRDLMEEEAVCLQMLEETRQVKVILNIGLFAVCSLGIFMFVYFSL [SLC5A3]	57.3 °C	55.9 °C	0.0469	0.7	0.41	-0.218
